From patent publication US20250388688A1 (ETHYREAL BIO, published 2025) come the findings set out here.

The target of experiment [1] is T1, soluble TSHR protein (ELISA coat) (human, UniProt P16473 22-260, limits assumed). Nature of the experiment: ELISA, plate coated with soluble TSHR, antibody at 100 nM, anti-human IgG Fc-HRP (blank 0.052).
In experiment [2] the target is T1, soluble TSHR protein (ELISA coat). Nature of the experiment: ELISA, plate coated with soluble TSHR, antibody at 33.3 nM, anti-human IgG Fc-HRP (blank 0.051). (In general: In an ELISA, binding on a coated surface is turned into a signal by an enzyme label.)
The target is the same in experiment [3]. Put plainly: ELISA, plate coated with soluble TSHR, antibody at 300 nM, anti-human IgG Fc-HRP (blank 0.055).
The target is the same in experiment [4]. Put plainly: ELISA, plate coated with soluble TSHR, antibody at 300 nM, anti-human IgG Fc-HRP.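 Also: TSHR coated at 2 µg/ml, bound antibody revealed by goat anti-human IgG Fc HRP, color developed with TMB and stopped with H2SO4.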
Description: (§1) Select TSHR antibody variants were tested for their ability to bind TSHR in an ELISA. Briefly, soluble TSHR protein was coated onto a plate at 2 μg/ml in phosphate buffered saline (PBS). The plate was washed with PBS and blocked with 4% skim milk in PBS.
(§2) Following wash steps with 1×PBS-Tween 0.05%, bound human IgG was detected with peroxidase conjugated goat anti-human IgG (Fc specific)-HRP at 1:5000 dilution and the ELISA was developed with TMB reagent followed by H2SO4.
Experiment [5] shares this target. Put plainly: ELISA, plate coated with soluble TSHR, antibody at 33.3 nM, anti-human IgG Fc-HRP.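 Also: binding of antibody variants to plate-bound soluble TSHR (coated at 2 µg/ml), with bound human IgG detected by HRP conjugate and colour developed using TMB substrate.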
Description: as §1, §2
Experiment [6] has the same target. Nature of the experiment: ELISA, plate coated with soluble TSHR, antibody at 100 nM, anti-human IgG Fc-HRP.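 Also: binding of antibody variants to soluble TSHR coated at 2 µg/ml, with colour developed using TMB substrate and stopped with H2SO4.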
Description: as §1, §2
In experiment [7] the target is T2, Soluble TSHR (22-260) protein (human, UniProt P16473 22-260).
T2 construct: range 22-260
Nature of the experiment: SPR (Biacore T200, 25 C), antibody captured on anti-human Fc, soluble TSHR (22-260) as analyte, 1:1 fit.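 Also: antibodies captured at 0.1 ug/mL on a CM5 sensor chip bearing anti-human Fc, with HBS-EP+ running buffer at pH 7.4.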 In general terms: In SPR one partner is held on a chip, and binding of the other changes the refractive index at the surface.
Description: Measurements were taken on a Biacore T200 at 25 C using a CM5 chip coated with anti-human Fc. Test antibodies were captured at 0.1 ug/mL in HBS-EP+ (10 mM HEPES pH7.4, 150 mM NaCl, 3 mM EDTA, 0.05% Tween 20) assay buffer. […] A 1:1 binding kinetics fit was used to calculate kinetic parameters.

By Kd is commonly meant a measure of binding affinity in units of concentration. Low readings indicate higher affinity, high ones lower affinity. Usually koff stands for a measure of how fast the partners let go of each other. Read a low koff as slow dissociation. The term kon denotes a measure of how fast the partners come together. A higher kon goes with faster complex formation.

Regarding human IgG1 isotype control antibody, the ELISA (OD 450) at 100 nM in experiment [1] was found to be 0.057 OD 450. For the same molecule, the ELISA (OD 450) at 33.3 nM in experiment [2] turned out to be 0.063 OD 450. Also, the ELISA (OD 450) at 300 nM in experiment [3] stood at 0.055 OD 450.

B1: TSHB-11 (antibody, V domains shown)
VH: EVQLVQSGAEVKKPGESLKISCKASGYSLTDNWIGWVRQKPGKGLEWMGIIYPGDSDTRYSPSFQGQVTISADKSISTAYLQWSSLKASDTAIYYCVGTDWNYNPLRYWGQGTLVTVSS
VL: QSVLTQPPSVSAAPGQKVTISCSGSSSDIGSNYVSWYQQFPGTAPKLLIYDNNKRPSAIPDRFSGSKSGTSATLGITGLQTGDEADYYCGTWDSRLGIAVFGGGTQLTVL
Consider B1, for which the “ELISA (OD 450) at 300 nM” value in experiment [4] worked out at 0.289 OD 450. For the same molecule, the “ELISA (OD 450) at 33.3 nM” value in experiment [5] is 0.159 OD 450. Moreover, in experiment [6], the “ELISA (OD 450) at 100 nM” value was 0.22 OD 450. Also, in experiment [7], the dissociation constant (Kd) was determined as 53.3 nM, the dissociation rate constant (koff) is 0.000643 s⁻¹ and the on-rate (kon) is 12100 M⁻¹ s⁻¹.

B2: TSHB-24 (antibody, V domains shown)
VH: EVQLVQSGAEVKKPGESLKISCKASGYSLTDNWIGWVRQKPGKGLEWMGIIYPGDSDTRYSPSFQGQVTISADKSISTAYLQWSSLKASDTAIYYCVGLDWNYNPLRYWGQGTLVTVSS
VL: QSVLTQPPSVSGAPGQRVTISCSGSSSDIGSNYVSWYQQLPGTAPKLLIYDNNKRPSGVPDRFSGSKSGTSASLAITGLQAEDEADYYCGTWDSRLGIAVFGGGTKLTVL
Regarding B2, the “ELISA (OD 450) at 300 nM” value in experiment [4] was 0.54 OD 450. Also, the “ELISA (OD 450) at 33.3 nM” value in experiment [5] was determined as 0.425 OD 450. For the same molecule, the “ELISA (OD 450) at 100 nM” value in experiment [6] is 0.49 OD 450. Besides, in experiment [7], the dissociation constant (Kd) was 2.7 nM, the koff turned out to be 0.000348 s⁻¹ and the association rate constant (kon) was found to be 129000 M⁻¹ s⁻¹.

B3: TSHB-15 (antibody, V domains shown)
VH: EVQLVQSGAEVKKPGQSLKISCKASGYSLTDNWIGWVRQKPGKGLEWMGIIYPGDSDTRYSPSFQGQVTISADKSINTAYLQWSSLKASDTAIYYCVGLDWNYNPLRYWGPGTLVTVSS
VL: QSVLTQPPSVSAAPGQKVTISCSGSSSDIGSNYVSWYQQLPGTAPKLLIYDNNKRPSGIPDRFSGSKSGTSATLGITGLQTGDEADYYCGTWDSRFGIAVFGGGTQLTVL
B3: the “ELISA (OD 450) at 300 nM” value in experiment [4] amounted to 0.569 OD 450. Besides, the “ELISA (OD 450) at 33.3 nM” value in experiment [5] came to 0.443 OD 450. Besides, the “ELISA (OD 450) at 100 nM” value in experiment [6] is 0.517 OD 450. Moreover, in experiment [7], binding was characterised by a dissociation constant (Kd) of 3.08 nM, the koff stood at 0.000372 s⁻¹ and the on-rate (kon) turned out to be 121000 M⁻¹ s⁻¹.

B4: TSHB-18 (antibody, V domains shown)
VH: EVQLVQSGAEVKKPGQSLKISCKASGYSLTDNWIGWVRQKPGKGLEWMGIIYPGDSDTRYSPSFQGQVTISADKSINTAYLQWSSLKASDTAIYYCVGLDWNYNPLRYWGPGTLVTVSS
VL: QSVLTQPPSVSAAPGQKVTISCSGSSTDIGSNYVSWYQQLPGTAPKLLIYDNNKRPSGIPDRFSGSKSGTSATLGITGLQTGDEADYYCGTWDSRLGIAVFGGGTQLTVL
Turning to B4, the “ELISA (OD 450) at 300 nM” value in experiment [4] is 0.55 OD 450. Also, the “ELISA (OD 450) at 33.3 nM” value in experiment [5] was determined as 0.42 OD 450. For the same molecule, the “ELISA (OD 450) at 100 nM” value in experiment [6] amounted to 0.495 OD 450. In experiment [7], this molecule displayed an equilibrium dissociation constant (Kd) of 2.94 nM, an off-rate (koff) of 0.000368 s⁻¹ and a kon of 125000 M⁻¹ s⁻¹.

B5: TSHB-21 (antibody, V domains shown)
VH: EVQLVQSGAEVKKPGQSLKISCKASGYSLTDNWIGWVRQKPGKGLEWMGIIYPGDSDTRYSPSFQGQVTISADKSINTAYLQWSSLKASDTAIYYCVGLDWNYNPLRYWGPGTLVTVSS
VL: QSVLTQPPSVSAAPGQKVTISCSGSSSDIGSNYVSWYQQLPGTAPKLLIYDNNKRPSGIPDRFSGSKSGTSATLGITGLQTGDEADYYCATWDSRLGIAVFGGGTQLTVL
With B5, the “ELISA (OD 450) at 300 nM” value in experiment [4] worked out at 0.552 OD 450. In experiment [5], the “ELISA (OD 450) at 33.3 nM” value was determined as 0.395 OD 450. Moreover, the “ELISA (OD 450) at 100 nM” value in experiment [6] was 0.473 OD 450. In experiment [7], binding was put at a Kd of 3.1 nM, the koff is 0.000357 s⁻¹ and the kon was 115000 M⁻¹ s⁻¹.

B6: TSHB-23 (antibody, V domains shown)
VH: EVQLVQSGAEVKKPGESLKISCKASGYSLTDNWIGWVRQKPGKGLEWMGIIYPGDSDTRYSPSFQGQVTISADKSISTAYLQWSSLKASDTAIYYCVGLDWNYNPLRYWGQGTLVTVSS
VL: QSVLTQPPSVSAAPGQKVTISCSGSSSDIGSNYVSWYQQLPGTAPKLLIYDNNKRPSGIPDRFSGSKSGTSATLGITGLQTGDEADYYCGTWDSRLGIAVFGGGTQLTVL
With B6, the “ELISA (OD 450) at 300 nM” value in experiment [4] was determined as 0.538 OD 450. Also, the “ELISA (OD 450) at 33.3 nM” value in experiment [5] came out at 0.512 OD 450. In addition, the “ELISA (OD 450) at 100 nM” value in experiment [6] came to 0.466 OD 450. In experiment [7], the dissociation constant (Kd) is 2.45 nM, the koff is 0.000344 s⁻¹ and the kon is 141000 M⁻¹ s⁻¹.

B7: TSHB-17 (antibody, V domains shown)
VH: EVQLVQSGAEVKKPGQSLKISCKASGYSLTDNWIGWVRQKPGKGLEWMGIIYPGDSDTRYSPSFQGQVTISADKSINTAYLQWSSLKASDTAIYYCVGLDWNYNPLRYWGPGTLVTVSS
VL: QSVLTQPPSVSAAPGQKVTISCSGSSSDIGSLYVSWYQQLPGTAPKLLIYDNNKRPSGIPDRFSGSKSGTSATLGITGLQTGDEADYYCGTWDSRLGIAVFGGGTQLTVL
In the case of B7, the “ELISA (OD 450) at 300 nM” value in experiment [4] stood at 0.475 OD 450. For the same molecule, the “ELISA (OD 450) at 33.3 nM” value in experiment [5] came to 0.357 OD 450. In addition, in experiment [6], the “ELISA (OD 450) at 100 nM” value was found to be 0.402 OD 450. Also, in experiment [7], the Kd worked out at 8.25 nM, the off-rate (koff) was 0.000407 s⁻¹ and the kon was 49400 M⁻¹ s⁻¹.

B8: TSHB-14 (antibody, V domains shown)
VH: EVQLVQSGAEVKKPGQSLKISCKASGYSLTDNWIGWVRQKPGKGLEWMGIIYPGDSDTRYSPSFQGQVTISADKSINTAYLQWSSLKASDTAIYYCVGLDWNYNPLRYWGPGTLVTVSS
VL: QSVLTQPPSVSAAPGQKVTISCSGSSSDIGSNYVSWYQQLPGTAPKLLIYDNNKRPSGIPDRFSGSKSGTSATLGITGLQTGDEADYYCGTWDSRWGIAVFGGGTQLTVL
In the case of B8, the “ELISA (OD 450) at 300 nM” value in experiment [4] is 0.572 OD 450. For the same molecule, in experiment [5], the “ELISA (OD 450) at 33.3 nM” value was found to be 0.477 OD 450. For the same molecule, the “ELISA (OD 450) at 100 nM” value in experiment [6] worked out at 0.522 OD 450. In experiment [7], this molecule returned a Kd of 2.52 nM, a koff of 0.000352 s⁻¹ and an on-rate constant (kon) of 140000 M⁻¹ s⁻¹.

B9: TSHB-20 (antibody, V domains shown)
VH: EVQLVQSGAEVKKPGQSLKISCKASGYSLTDNWIGWVRQKPGKGLEWMGIIYPGDSDTRYSPSFQGQVTISADKSINTAYLQWSSLKASDTAIYYCVGLDWNYNPLRYWGPGTLVTVSS
VL: QSVLTQPPSVSAAPGQKVTISCSGSSSNIGSNYVSWYQQLPGTAPKLLIYDNNKRPSGIPDRFSGSKSGTSATLGITGLQTGDEADYYCGTWDSRLGIAVFGGGTQLTVL
As to B9, the “ELISA (OD 450) at 300 nM” value in experiment [4] is 0.54 OD 450. In addition, the “ELISA (OD 450) at 33.3 nM” value in experiment [5] stood at 0.411 OD 450. Also, the “ELISA (OD 450) at 100 nM” value in experiment [6] was determined as 0.465 OD 450. In experiment [7], this molecule yielded a Kd of 2.77 nM, a koff of 0.000301 s⁻¹ and a kon of 109000 M⁻¹ s⁻¹.

B10: TSHB-19 (antibody, V domains shown)
VH: EVQLVQSGAEVKKPGQSLKISCKASGYSLTDNWIGWVRQKPGKGLEWMGIIYPGDSDTRYSPSFQGQVTISADKSINTAYLQWSSLKASDTAIYYCVGLDWNYNPLRYWGPGTLVTVSS
VL: QSVLTQPPSVSAAPGQKVTISCSGSSSDIGSNWVSWYQQLPGTAPKLLIYDNNKRPSGIPDRFSGSKSGTSATLGITGLQTGDEADYYCGTWDSRLGIAVFGGGTQLTVL
On to B10, for which the “ELISA (OD 450) at 300 nM” value in experiment [4] was found to be 0.547 OD 450. Further, in experiment [5], the “ELISA (OD 450) at 33.3 nM” value stood at 0.405 OD 450. The “ELISA (OD 450) at 100 nM” value in experiment [6] is 0.47 OD 450. In experiment [7], the equilibrium dissociation constant (Kd) was 3.12 nM, the koff stood at 0.000369 s⁻¹ and the on-rate constant (kon) was found to be 118000 M⁻¹ s⁻¹.

B11: TSHB-16 (antibody, V domains shown)
VH: EVQLVQSGAEVKKPGQSLKISCKASGYSLTDNWIGWVRQKPGKGLEWMGIIYPGDSDTRYSPSFQGQVTISADKSINTAYLQWSSLKASDTAIYYCVGLDWNYNPLRYWGPGTLVTVSS
VL: QSVLTQPPSVSAAPGQKVTISCSGSSSDIGANYVSWYQQLPGTAPKLLIYDNNKRPSGIPDRFSGSKSGTSATLGITGLQTGDEADYYCGTWDSRLGIAVFGGGTQLTVL
For the molecule B11, in experiment [4], the “ELISA (OD 450) at 300 nM” value stood at 0.566 OD 450. Besides, in experiment [5], the “ELISA (OD 450) at 33.3 nM” value was found to be 0.443 OD 450. Also, in experiment [6], the “ELISA (OD 450) at 100 nM” value was 0.487 OD 450. In experiment [7], this molecule displayed an equilibrium dissociation constant (Kd) of 2.7 nM, a dissociation rate constant (koff) of 0.000385 s⁻¹ and an on-rate constant (kon) of 142000 M⁻¹ s⁻¹.
